For test [1], the target named is His6x-MotE (mature form of MotE of Cereibacter sphaeroides) (Cereibacter sphaeroides). Put plainly: non-reducing SDS-PAGE; purified His6x-MotE, loading buffer without or with beta-mercaptoethanol, Coomassie blue stain; monomer to disulfide-linked dimer.
Test [2] deals with MotE, endogenous in Cereibacter sphaeroides AM1 (Cereibacter sphaeroides (endogenous in AM1)). Put plainly: non-reducing SDS-PAGE; total cell extracts of AM1 prepared without or with beta-mercaptoethanol, immunodetection with anti-MotE; monomer to disulfide-linked dimer.

A word on the stoichiometry N: it is the number of molecules, sites or subunits per partner or assembly.

In test [1], “His6x-MotE (mature form of MotE of Cereibacter sphaeroides) (natural protein)” came in with a stoichiometry N of 2.
For “MotE, endogenous in Cereibacter sphaeroides AM1 (natural protein)”, in test [2], the stoichiometry N is 2.

Values taken from publication PMC10954123.
